Here are results for one protein from PMC10038035 (Journal of Enzyme Inhibition and Medicinal Chemistry, 2023).

The data set concerns the molecule itself. Description: PrP aggregate formation assay (PAFA, thioflavin T fluorescence).

B1: His-tagged mouse recombinant PrP (23-231) (domain or fragment)
chain: not shown
In the case of B1, the binding result is reported as “binds”.
